Consider one molecule from patent publication US20240182596A1 (TUBULIS, published 2024).

In experiment [1] the target is T1, human NaPi2b on NaPi2b-positive cell lines OVCAR-3 and HCC-78 (human, UniProt O95436 1-690).
T1 construct: Endogenous protein
T1 sequence: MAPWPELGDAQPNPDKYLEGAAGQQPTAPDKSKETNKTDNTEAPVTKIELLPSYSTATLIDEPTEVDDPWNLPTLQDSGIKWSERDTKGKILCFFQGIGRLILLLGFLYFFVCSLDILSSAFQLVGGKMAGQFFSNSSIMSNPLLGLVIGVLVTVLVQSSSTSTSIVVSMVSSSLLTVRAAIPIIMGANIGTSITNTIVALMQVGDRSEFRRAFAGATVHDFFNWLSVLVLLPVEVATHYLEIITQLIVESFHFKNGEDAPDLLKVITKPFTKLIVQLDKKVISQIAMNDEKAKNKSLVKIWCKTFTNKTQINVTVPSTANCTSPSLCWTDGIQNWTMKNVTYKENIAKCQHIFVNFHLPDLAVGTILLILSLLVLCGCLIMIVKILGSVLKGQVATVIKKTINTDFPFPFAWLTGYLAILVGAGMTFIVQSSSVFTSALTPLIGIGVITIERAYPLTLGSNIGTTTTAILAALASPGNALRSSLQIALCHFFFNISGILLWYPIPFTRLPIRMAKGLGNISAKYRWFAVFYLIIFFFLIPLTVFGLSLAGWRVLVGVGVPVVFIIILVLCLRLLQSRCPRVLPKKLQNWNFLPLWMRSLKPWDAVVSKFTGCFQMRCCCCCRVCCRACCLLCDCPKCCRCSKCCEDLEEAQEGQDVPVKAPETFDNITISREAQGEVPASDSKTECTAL
In words: flow cytometry on HCC-78 cells, one-site fit. On the technique in general: Flow cytometry measures light scatter and fluorescence of single cells or particles in a stream.
Protocol: To determine concentration-dependent binding, NaPi2b-positive OVCAR-3 and HCC-78 were incubated with antibodies in concentrations ranging from 0.00075 to 30 μg/ml, stained with an Alexa-dye-labeled anti-human IgG H+L secondary antibody (Thermo Fisher Scientific), and analyzed by flow cytometry. Mean fluorescence intensity (MFI) ratios were normalized to the non-specific binding control. The assay was performed in duplicates and data points were analyzed by a non-linear regression using a one-site specific binding model using Prism 9 software.

Experiment [2] deals with T2, human Napi2a-mCherry on HEK293 cells (human, UniProt Q06495 1-639).
T2 construct: whole, on cells; also called Napi2a (SLC34A1); not shown: mCherry fusion
T2 sequence (looked up): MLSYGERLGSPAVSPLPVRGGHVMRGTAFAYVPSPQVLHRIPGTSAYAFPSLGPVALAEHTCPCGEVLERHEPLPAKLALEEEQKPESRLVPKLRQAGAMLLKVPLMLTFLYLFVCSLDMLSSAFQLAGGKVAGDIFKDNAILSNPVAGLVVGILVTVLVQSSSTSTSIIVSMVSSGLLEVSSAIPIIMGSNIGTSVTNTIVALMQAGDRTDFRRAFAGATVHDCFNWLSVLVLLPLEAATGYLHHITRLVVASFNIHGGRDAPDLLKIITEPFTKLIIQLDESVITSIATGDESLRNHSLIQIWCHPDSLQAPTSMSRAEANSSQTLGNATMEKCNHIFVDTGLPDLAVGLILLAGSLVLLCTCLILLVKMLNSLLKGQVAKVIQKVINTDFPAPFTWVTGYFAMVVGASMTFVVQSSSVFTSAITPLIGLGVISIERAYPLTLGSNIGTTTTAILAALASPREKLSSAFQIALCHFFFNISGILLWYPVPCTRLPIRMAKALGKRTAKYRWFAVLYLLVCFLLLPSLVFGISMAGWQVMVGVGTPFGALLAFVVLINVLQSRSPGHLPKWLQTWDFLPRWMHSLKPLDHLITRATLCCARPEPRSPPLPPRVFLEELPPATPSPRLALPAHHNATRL
In words: flow cytometry on HEK293 cells expressing human Napi2a-mCherry (panel Napi2a-HEK293), MFI ratio to the non-specific binding control.

A further experiment concerns the target T3, FcγRIIIa (CD16) (V158) (Homo sapiens, UniProt P08637).
T3 construct: m21 joins both polymorphic variants; also called V158 variant of m21
In words: Lumit FcγRIIIa (V158) Binding Immunoassay (Promega), left panel FcγRIIIa (CD16) (V158), competition with Tracer-LgBiT for FcγR-SmBiT, falling luminescence means binding, n=1.

Another experiment has as its target T4, FcγRIIIa (CD16) (F158) (Homo sapiens, UniProt P08637).
T4 construct: m21 joins both polymorphic variants; also called F158 variant of m21
In words: Lumit FcγRIIIa (F158) Binding Immunoassay (Promega), right panel FcγRIIIa (CD16) (F158), competition with Tracer-LgBiT for FcγR-SmBiT, falling luminescence means binding, n=1.

For experiment [3], the target named is T5, human Napi2b-mCherry on HEK293 cells (human, UniProt O95436 1-690).
T5 construct: also called Napi2b (SLC34A2); HEK293 cells overexpressing Napi2b
T5 sequence: T1 sequence
In words: flow cytometry on HEK293 cells expressing human Napi2b-mCherry (panel Napi2b-HEK293), Alexa-dye anti-human IgG H+L secondary antibody, MFI ratio to the non-specific binding control.
Protocol: To determine concentration-dependent binding, HEK293 cells transiently or stably expressing human Napi2a-, Napi2b- and Napi2c-mCherry were incubated with antibodies or ADCs in concentrations ranging from 0.002 to 200 nM, stained with an Alexa-dye-labeled anti-human IgG H+L secondary antibody (Thermo Fisher Scientific), and analyzed by flow cytometry. Mean fluorescence intensity (MFI) ratios were normalized to the non-specific binding control. The assay was performed in duplicates and data points were analyzed by a non-linear regression using a one-site specific binding model using Prism 9 software.

T4 sequence (P08637 17-208 limits assumed): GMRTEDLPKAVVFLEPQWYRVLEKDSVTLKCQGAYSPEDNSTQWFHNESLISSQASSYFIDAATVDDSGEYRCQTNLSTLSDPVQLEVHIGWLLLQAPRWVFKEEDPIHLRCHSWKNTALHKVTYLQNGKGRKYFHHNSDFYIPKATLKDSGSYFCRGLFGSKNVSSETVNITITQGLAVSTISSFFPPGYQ
T3 sequence (P08637 17-208 F176V limits assumed): as the sequence (P08637 17-208 limits assumed) above, with F160V counted along it
Protocol for FcγRIIIa (CD16) (F158): (§1) Luminescence is measured on a microplate reader Infinite M200 Pro (Tecan). Graphs show n=1.
(§2) Luminescence was measured on a microplate reader Infinite M200 Pro (Tecan). Graphs show n=1.
Protocol for FcγRIIIa (CD16) (V158): as §1, §2

B1: AV25 mAb, LALA-silenced (AV25 HC-LALA) (antibody, human IgG1, kappa, L234A L235A)
heavy: not shown
light: DIQMTQSPSSLSASVGDRVTITCSASQDIGNFLNWYQQKPGKTVKVLIYYASSLYSGVPSRFSGSGSGTDYTLTISSLQPEDFATYYCQQYSKLPLTFGQGTKLELKRTVAAPSVFIFPPSDEQLKSGTASVVCLLNNFYPREAKVQWKVDNALQSGNSQESVTEQDSKDSTYSLSSTLTLSKADYEKHKVYACEVTHQGLSSPVTKSFNRGEC
notes: also called unmodified AV25 mAb
In the case of B1, the Kd in experiment [1] is 0.42 µg/mL. Moreover, the binding result is reported as “no binding (tested: 200 nM)” in experiment [2], “binds” in the experiment with FcγRIIIa (CD16) (V158) and “binds” with FcγRIIIa (CD16) (F158). The “EC50 (read off the curve)” value in experiment [3] is approximately 0.7 nM.

A word on the Kd: it is the constant that tells how readily two partners part at equilibrium. Read a low Kd as a tighter complex. In general, EC50 (read off the curve) refers to the concentration that produces a half-maximal response.
